Source: PMC11582626 (Nature Communications, 2024)

Tests used:
[1] = target: RSV B18537 prefusion-stabilized F glycoprotein variant sc9-10 DS-Cav1 (respiratory syncytial virus strain B18537); assay: cryo-EM structure
[2] = target: h5B11-YTE, h5B11 with the YTE mutation (M252Y/S254T/T256E) in the Fc region (human); assay: SPR
[3] = target: RSV A2 prefusion-stabilized F glycoprotein variant DS-Cav1 (respiratory syncytial virus strain A2); assay: cryo-EM structure
[4] = target: RSV B18537 prefusion-stabilized F glycoprotein variant DS-Cav1 (respiratory syncytial virus strain B18537)
[5] = target: RSV B18537 prefusion-stabilized F glycoprotein variant DS-Cav1 (respiratory syncytial virus strain B18537); assay: SPR
[6] = target: T1, RSV B18537 prefusion-stabilized F glycoprotein variant DS-Cav1 (Human respiratory syncytial virus B, …, stabilised); assay: SPR
T1 chain 1: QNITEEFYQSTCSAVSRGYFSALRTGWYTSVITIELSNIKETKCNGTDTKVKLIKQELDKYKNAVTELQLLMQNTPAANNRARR
T1 chain 2: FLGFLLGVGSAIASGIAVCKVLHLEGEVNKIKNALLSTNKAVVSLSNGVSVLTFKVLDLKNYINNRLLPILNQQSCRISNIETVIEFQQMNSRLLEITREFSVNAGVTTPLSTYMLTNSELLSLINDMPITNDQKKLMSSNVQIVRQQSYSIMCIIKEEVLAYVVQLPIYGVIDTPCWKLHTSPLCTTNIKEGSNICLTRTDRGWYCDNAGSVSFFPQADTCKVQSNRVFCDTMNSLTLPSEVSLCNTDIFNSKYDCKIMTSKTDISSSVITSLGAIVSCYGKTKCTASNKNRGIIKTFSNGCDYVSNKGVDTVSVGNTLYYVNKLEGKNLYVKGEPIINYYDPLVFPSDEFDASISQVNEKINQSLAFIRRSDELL

[7] = target: RSV B18537 post-fusion F protein (Human respiratory syncytial virus B, …, UniProt P13843); assay: ELISA
Sequence of RSV B18537 post-fusion F protein (P13843 whole entry, looked up, the tested form may be a part, one chain of several): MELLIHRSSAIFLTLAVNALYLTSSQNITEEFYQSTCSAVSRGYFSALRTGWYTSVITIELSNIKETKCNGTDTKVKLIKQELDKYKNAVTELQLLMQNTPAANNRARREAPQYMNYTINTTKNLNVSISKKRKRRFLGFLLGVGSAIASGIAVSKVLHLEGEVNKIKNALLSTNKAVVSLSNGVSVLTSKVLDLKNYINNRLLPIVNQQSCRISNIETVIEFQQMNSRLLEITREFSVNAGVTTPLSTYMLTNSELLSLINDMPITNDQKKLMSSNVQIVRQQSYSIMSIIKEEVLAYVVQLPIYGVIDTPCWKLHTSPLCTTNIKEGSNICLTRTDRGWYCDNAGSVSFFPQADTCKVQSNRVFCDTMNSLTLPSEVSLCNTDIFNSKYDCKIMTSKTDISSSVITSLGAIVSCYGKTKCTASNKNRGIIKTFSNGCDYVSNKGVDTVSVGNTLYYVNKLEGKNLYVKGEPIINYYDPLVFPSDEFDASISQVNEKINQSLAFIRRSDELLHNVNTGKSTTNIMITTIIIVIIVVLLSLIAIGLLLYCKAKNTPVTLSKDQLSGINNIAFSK

[8] = target: RSV A2 post-fusion F protein (Human respiratory syncytial virus A, …, UniProt P03420); assay: ELISA
Sequence of RSV A2 post-fusion F protein (P03420 whole entry, looked up, the tested form may be a part): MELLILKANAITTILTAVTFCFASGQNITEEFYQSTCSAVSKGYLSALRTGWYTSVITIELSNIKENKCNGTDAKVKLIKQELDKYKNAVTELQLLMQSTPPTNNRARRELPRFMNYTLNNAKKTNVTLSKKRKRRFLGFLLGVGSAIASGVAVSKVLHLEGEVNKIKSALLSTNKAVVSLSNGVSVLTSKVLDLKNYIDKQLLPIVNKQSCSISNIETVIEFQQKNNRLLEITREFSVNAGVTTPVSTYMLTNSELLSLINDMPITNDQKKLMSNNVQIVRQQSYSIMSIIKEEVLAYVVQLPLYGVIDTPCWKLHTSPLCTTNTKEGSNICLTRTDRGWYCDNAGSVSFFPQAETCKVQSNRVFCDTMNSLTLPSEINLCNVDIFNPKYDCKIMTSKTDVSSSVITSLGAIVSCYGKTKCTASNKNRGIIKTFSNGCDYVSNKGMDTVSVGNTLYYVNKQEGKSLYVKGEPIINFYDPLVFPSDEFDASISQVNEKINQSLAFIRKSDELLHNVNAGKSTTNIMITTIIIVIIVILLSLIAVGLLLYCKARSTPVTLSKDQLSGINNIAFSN

**Q.** “RSV B18537 prefusion-stabilized F glycoprotein variant sc9-10 DS-Cav1 (natural protein)” was tested. Which stoichiometry N [1] did it give?
**A.** 3

**Q.** How did the fold increase in affinity over h5B11-WT [2] turn out when “human neonatal FcR (hFcRn) (from UniProt P55899;P61769) (receptor)” was run?
**A.** 8 fold

**Q.** How did the stoichiometry N [3] turn out when “RSV A2 prefusion-stabilized F glycoprotein variant DS-Cav1 (natural protein)” was run?
**A.** 3

B1: nirsevimab (biosimilar, human IgG1, kappa) (antibody, V domains shown)
VH: QVQLVQSGAEVKKPGSSVMVSCQASGGLLEDYIINWVRQAPGQGPEWMGGIIPVLGTVHYGPKFQGRVTITADESTDTAYMELSSLRSEDTAMYYCATETALVVSETYLPHYFDNWGQGTLVTVSS
VL: DIQMTQSPSSLSAAVGDRVTITCQASQDIVNYLNWYQQKPGKAPKLLIYVASNLETGVPSRFSGSGSGTDFSLTISSLQPEDVATYYCQQYDNLPLTFGGGTKVEIK
**Q.** With B1 as the molecule, how does the plaque reduction neutralization of RSV B18537, IC50 [4] read?
**A.** 0.0285 mg/L

B2: nirsevimab Fab (Fab, V domains shown)
VH: QVQLVQSGAEVKKPGSSVMVSCQASGGLLEDYIINWVRQAPGQGPEWMGGIIPVLGTVHYGPKFQGRVTITADESTDTAYMELSSLRSEDTAMYYCATETALVVSETYLPHYFDNWGQGTLVTVSS
VL: DIQMTQSPSSLSAAVGDRVTITCQASQDIVNYLNWYQQKPGKAPKLLIYVASNLETGVPSRFSGSGSGTDFSLTISSLQPEDVATYYCQQYDNLPLTFGGGTKVEIK
**Q.** Which Kd [5] does the source give for B2 here?
**A.** > 800 nM

B3: 5B11 Fab (antigen-binding fragment of murine 5B11) (Fab, V domains shown)
VH: QIQLVQSGPELKKPGETVKISCKASGYTFTDYSMHWLKQAPGKGLKWMGWITTETGEPTYADDFKGRFAFSLETSASTAYLQINNLKNEDTGIYFCARYYYGPFYWGQGTLVTVST
VL: DIQMTQSPASLSASVGETVTITCRSSGNIHNFLTWYQQKQGKSPQFLVYNAKTLADGVSSRFSGSGSGTQFSLKINSLQPEDFGIYYCQHFWTTPYTFGGGTKLEIK
**Q.** B3 was tested. Which Kd [6] did it give?
**A.** 0.124 nM

B4: 5B11, murine monoclonal antibody (mouse IgG2a, kappa) (antibody, V domains shown)
VH: QIQLVQSGPELKKPGETVKISCKASGYTFTDYSMHWLKQAPGKGLKWMGWITTETGEPTYADDFKGRFAFSLETSASTAYLQINNLKNEDTGIYFCARYYYGPFYWGQGTLVTVST
VL: DIQMTQSPASLSASVGETVTITCRSSGNIHNFLTWYQQKQGKSPQFLVYNAKTLADGVSSRFSGSGSGTQFSLKINSLQPEDFGIYYCQHFWTTPYTFGGGTKLEIK
**Q.** Does B4 bind [7]?
**A.** no binding

**Q.** Does B4 bind [8]?
**A.** no binding

B5: h5B11, humanized version of 5B11 (human IgG1, kappa) (antibody, V domains shown)
VH: QIQLVQSGPELKKPGASVKISCKASGYTFTDYSMHWLKQAPGKGLKWMGWITTETGEPTYADDFKGRFAFSLDTSASTAYLQISSLKAEDTGVYFCARYYYGPFYWGQGTLVTVSS
VL: DIQMTQSPSSLSASVGDRVTITCRSSGNIHNFLTWYQQKPGKSPQFLVYNAKTLADGVPSRFSGSGSGTQFTLTISSLQPEDFGIYYCQHFWTTPYTFGGGTKVEIK
**Q.** Which results are given for B5?
**A.** binding result [7]: no binding; binding result [8]: no binding
